Measured values: paper PMC10202959

What was measured:
Experiment in all cases: ELISA; plates coated with 100 nM ECM protein in PBS (1 h, 37 °C), blocked with 1% BSA in PBS-T; PDGF-BB or IL-1Ra variants at increasing concentrations in PBS-T with 0.1% BSA, 1 h at room temperature; detected with biotinylated antibodies; one site specific binding model; n = 3
human tenascin C (human) = human tenascin C (human) (UniProt P24821)
[1] = molecular target: human vitronectin (human) (UniProt P04004)
[2] = molecular target: human plasma fibronectin (human)
Chain of human plasma fibronectin (human) (P02751 other isoform, or with tags, fused parts or gaps, chain 1 of 2): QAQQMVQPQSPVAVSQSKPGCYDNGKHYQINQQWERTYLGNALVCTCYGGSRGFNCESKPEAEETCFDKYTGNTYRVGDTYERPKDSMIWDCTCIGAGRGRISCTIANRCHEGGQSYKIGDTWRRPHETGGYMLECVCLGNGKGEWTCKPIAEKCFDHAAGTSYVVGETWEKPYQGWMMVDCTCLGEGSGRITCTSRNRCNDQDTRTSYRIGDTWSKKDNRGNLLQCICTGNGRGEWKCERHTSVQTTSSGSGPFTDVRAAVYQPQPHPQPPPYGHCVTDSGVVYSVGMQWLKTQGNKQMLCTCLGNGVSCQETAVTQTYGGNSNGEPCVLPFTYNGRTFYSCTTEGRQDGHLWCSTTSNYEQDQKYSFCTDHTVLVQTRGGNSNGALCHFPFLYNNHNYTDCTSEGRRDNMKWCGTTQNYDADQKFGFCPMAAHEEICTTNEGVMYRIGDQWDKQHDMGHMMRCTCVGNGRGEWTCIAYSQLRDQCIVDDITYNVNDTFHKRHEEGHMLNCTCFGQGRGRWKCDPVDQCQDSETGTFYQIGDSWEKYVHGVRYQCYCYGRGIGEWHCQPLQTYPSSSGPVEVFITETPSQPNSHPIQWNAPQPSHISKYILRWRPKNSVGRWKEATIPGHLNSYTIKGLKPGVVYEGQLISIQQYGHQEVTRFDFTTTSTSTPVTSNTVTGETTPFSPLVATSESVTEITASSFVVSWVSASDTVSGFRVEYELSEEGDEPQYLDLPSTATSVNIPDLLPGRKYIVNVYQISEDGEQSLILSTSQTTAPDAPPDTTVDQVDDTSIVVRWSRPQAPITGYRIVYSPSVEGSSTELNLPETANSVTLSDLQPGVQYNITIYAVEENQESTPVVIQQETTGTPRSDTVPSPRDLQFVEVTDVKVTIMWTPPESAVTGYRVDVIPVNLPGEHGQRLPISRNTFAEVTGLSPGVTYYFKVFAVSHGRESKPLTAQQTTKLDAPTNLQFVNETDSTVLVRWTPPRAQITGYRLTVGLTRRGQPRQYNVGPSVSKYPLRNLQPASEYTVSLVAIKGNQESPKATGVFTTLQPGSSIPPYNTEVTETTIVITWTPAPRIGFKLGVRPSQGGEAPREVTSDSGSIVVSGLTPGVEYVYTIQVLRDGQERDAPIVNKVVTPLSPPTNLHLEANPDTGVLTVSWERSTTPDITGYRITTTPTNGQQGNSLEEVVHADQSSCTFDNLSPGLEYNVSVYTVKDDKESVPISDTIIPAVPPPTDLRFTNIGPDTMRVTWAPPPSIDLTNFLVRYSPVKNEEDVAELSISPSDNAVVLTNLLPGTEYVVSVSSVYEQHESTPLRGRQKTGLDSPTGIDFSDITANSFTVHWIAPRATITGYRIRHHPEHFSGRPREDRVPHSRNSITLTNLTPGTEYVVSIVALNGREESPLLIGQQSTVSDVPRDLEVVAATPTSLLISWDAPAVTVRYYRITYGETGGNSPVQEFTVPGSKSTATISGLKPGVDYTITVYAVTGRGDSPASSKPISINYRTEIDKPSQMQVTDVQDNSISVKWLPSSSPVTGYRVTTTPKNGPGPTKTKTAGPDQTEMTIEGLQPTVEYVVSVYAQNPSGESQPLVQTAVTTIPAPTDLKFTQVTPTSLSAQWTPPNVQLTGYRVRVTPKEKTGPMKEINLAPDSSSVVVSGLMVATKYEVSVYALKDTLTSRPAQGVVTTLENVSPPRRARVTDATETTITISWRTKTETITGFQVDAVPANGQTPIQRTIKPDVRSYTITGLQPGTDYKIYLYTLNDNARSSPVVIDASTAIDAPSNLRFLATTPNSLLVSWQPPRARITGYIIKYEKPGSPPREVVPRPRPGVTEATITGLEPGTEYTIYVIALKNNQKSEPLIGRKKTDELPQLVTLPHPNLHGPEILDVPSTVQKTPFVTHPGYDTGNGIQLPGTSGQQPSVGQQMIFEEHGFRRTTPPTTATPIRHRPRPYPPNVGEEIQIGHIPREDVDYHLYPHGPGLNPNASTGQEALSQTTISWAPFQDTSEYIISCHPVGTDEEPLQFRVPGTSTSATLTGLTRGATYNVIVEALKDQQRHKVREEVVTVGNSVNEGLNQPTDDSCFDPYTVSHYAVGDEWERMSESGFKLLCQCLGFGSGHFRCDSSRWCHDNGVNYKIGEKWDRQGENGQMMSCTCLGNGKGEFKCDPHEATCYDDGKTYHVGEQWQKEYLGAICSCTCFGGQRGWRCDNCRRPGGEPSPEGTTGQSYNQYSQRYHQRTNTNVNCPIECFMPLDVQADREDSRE
Chain of human plasma fibronectin (human) (P02751 other isoform, or with tags, fused parts or gaps, chain 2 of 2): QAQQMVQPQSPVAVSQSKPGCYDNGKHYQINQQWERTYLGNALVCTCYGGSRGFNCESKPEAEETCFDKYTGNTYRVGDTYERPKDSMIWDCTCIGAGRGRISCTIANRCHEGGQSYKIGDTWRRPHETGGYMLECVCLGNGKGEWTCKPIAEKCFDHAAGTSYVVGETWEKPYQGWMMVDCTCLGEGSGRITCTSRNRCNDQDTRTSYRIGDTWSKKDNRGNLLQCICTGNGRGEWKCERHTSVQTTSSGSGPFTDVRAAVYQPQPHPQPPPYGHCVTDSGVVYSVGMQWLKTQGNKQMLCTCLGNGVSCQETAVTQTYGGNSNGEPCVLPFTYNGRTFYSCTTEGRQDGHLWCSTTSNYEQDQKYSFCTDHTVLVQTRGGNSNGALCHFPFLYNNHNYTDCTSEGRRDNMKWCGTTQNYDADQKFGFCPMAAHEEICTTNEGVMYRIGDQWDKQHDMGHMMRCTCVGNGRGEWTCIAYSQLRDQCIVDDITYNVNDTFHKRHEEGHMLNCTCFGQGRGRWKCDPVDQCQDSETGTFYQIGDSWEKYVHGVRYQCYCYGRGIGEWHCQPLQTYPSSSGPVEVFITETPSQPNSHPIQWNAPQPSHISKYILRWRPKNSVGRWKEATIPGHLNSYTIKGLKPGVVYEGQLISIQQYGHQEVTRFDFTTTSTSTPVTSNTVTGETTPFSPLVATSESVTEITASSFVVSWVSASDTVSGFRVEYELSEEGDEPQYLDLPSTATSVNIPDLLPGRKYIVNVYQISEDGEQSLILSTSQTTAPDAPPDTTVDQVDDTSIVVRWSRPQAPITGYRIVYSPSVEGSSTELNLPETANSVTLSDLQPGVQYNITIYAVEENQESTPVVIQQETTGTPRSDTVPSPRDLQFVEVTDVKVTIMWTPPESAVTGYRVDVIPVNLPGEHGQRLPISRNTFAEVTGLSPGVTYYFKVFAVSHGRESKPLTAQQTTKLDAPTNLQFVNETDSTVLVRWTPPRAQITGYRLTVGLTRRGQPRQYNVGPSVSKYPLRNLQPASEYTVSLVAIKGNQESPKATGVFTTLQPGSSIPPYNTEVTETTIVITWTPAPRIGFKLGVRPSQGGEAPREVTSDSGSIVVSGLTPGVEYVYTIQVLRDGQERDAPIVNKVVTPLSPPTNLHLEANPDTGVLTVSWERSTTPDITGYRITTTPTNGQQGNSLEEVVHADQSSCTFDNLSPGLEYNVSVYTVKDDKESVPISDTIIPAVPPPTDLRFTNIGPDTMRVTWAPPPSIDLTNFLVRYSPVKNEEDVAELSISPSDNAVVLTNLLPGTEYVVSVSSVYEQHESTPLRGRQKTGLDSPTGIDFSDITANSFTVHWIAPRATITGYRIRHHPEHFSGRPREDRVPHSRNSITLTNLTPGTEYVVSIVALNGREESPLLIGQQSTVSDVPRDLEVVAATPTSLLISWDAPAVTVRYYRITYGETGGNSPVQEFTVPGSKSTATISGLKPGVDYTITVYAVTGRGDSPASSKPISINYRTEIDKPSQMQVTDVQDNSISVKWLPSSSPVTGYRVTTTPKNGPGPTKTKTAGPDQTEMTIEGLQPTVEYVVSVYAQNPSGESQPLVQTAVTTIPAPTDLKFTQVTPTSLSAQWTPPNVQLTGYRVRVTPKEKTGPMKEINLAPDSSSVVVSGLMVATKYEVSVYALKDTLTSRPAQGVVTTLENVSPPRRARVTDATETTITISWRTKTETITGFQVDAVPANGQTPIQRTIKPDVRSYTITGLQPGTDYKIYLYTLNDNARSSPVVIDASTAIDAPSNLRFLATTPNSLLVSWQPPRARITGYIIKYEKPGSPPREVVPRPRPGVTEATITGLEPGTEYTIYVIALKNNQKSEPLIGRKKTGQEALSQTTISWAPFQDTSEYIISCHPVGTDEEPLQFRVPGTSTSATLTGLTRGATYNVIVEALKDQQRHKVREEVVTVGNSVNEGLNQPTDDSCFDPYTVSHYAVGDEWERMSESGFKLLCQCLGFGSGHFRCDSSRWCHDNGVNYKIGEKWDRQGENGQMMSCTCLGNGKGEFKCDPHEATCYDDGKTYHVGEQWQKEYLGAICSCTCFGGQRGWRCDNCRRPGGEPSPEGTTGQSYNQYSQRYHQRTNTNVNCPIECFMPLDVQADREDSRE

Chain of human vitronectin (human) (P04004 20-478): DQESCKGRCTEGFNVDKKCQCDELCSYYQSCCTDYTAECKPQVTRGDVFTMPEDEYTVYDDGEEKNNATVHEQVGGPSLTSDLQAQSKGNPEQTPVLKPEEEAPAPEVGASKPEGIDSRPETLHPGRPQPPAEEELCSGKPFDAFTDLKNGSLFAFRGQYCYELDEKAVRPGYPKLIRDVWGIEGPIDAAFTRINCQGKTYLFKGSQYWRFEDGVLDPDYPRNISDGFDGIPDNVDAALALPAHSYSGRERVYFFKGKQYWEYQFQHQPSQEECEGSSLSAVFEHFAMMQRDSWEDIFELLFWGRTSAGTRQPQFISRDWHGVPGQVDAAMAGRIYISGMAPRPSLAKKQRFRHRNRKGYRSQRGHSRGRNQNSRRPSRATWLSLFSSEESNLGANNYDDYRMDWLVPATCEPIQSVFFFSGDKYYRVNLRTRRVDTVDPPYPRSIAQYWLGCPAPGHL

Kd (human tenascin C (human)) | Kd [1] | Kd [2] | Substance
18.6 nM | 1.9 nM | 16.5 nM | AREG26-38/IL-1Ra
19.3 nM | 1.3 nM | 5.9 nM | AREG26-38/PDGF-BB
